In assay [1] the target is T1, PD-L1 (Programmed Death-Ligand 1), recombinant, His-tagged (human, UniProt Q9NZQ7 18-134).
T1 chain: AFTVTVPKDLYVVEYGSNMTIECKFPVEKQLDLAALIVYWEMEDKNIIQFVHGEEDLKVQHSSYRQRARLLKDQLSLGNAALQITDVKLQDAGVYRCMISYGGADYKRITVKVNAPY
Put plainly: in vitro PD-L1 binding assay.

Assay [2] deals with Desert Hedgehog (Dhh) (human, UniProt O43323 23-198). The assay is described as follows: immobilized Dhh binding assay; FIG. 13C.
The target in assay [3] is Sonic Hedgehog (Shh) (human, UniProt Q15465 24-197). The assay is described as follows: immobilized Shh binding assay; FIG. 13C.
For assay [4], the target named is Indian Hedgehog (Ihh) (human, UniProt Q14623 28-202). The assay is described as follows: immobilized Ihh binding assay; FIG. 13C.
Assay [5] has as its target cRK10(pCmF). Put plainly: in vitro PD-L1 binding assay.
The target of assay [6] is cCLP002(pCaaF). The assay is described as follows: in vitro PD-L1 binding assay.
Assay [7] has as its target cCLP002(pCmF). The assay is described as follows: in vitro PD-L1 binding assay.
Assay [8] addresses T1, PD-L1 (Programmed Death-Ligand 1), …. Put plainly: in vitro PD-L1 binding assay; FIG. 15A.
The target is the same in assay [9]. The assay is described as follows: in vitro PD-L1 binding assay.

Starred links: 1 amine or outer side, 2 acyl side, 3 side chain; linkers in the order of their positions; H or OH if unused. Positions of bridges follow the written chain, without caps; N, C: chain ends. Non-standard residues stand in square brackets, D forms with d. No end group written: not given here. O2beY = O-(2-bromoethyl)-tyrosine (p-2beF), reacts with Cys to form a thioether, O=C([C@H](Cc1ccc(OCCBr)cc1)N[*:1])[*:2]; pCaaF = p-(2-chloroacetamido)-phenylalanine, O=C(CCl)Nc1ccc(C[C@H](N[*:1])C(=O)[*:2])cc1

Indian Hedgehog (Ihh), sequence (Q14623 28-202): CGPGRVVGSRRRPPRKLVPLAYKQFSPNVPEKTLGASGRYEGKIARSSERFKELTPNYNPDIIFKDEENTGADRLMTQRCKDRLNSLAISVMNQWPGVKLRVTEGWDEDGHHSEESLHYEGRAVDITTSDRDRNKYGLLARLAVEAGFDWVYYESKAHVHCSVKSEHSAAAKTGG

What is called Kd is the constant that tells how readily two partners part at equilibrium. On to DYKDDDDKGSGSWHFS[pCaaF]NWRWLPCQQQQQQ (Fc fusion, thioether 17-24 (inferred); not fully specified (C-terminus)) [cCLP003 (pCaaF)-Tras-Fc], for which, in assay [1], the Kd stood at 238 nM.
With DYKDDDDKGSGSTLSW[O2beY]EAMDMCTSSQQQQQQ-{Fc-H6} (Fc fusion, thioether 17-23; also: dimeric through the Fc) [L2-m5-Tras-Fc], the Kd is 9 nM in assay [2], 8 nM in assay [3] and 8 nM in assay [4].

B1: PD-L1 (ligand)
chain: AFTVTVPKDLYVVEYGSNMTIECKFPVEKQLDLAALIVYWEMEDKNIIQFVHGEEDLKVQHSSYRQRARLLKDQLSLGNAALQITDVKLQDAGVYRCMISYGGADYKRITVKVNAPY
As for B1, the Kd in [5] was above 100000 nM; in assay [6], 87000 nM; in [7], above 15000 nM.
For the molecule TYLCGAISLA[pCaaF]KAQIKESL (thioether 4-11) [cyclic peptide cRK10 (pCaaF)], in assay [8], the dissociation constant (Kd) came out at 12000 nM.
For the molecule DYKDDDDKGSGSTYLCGAISLA[pCaaF]KAQIKESLEAAAK-{Fc-H6} (Fc fusion, thioether 16-23) [FLAG-cRK10-EAAAK-Tras-Fc-His], the Kd in assay [9] came out at 88 nM.
Same read-out and setting: next, DYKDDDDKGSGSTYLCGAISLA[pCaaF]KAQIKESLGSGSGS-{Fc-H6} (Fc fusion, thioether 16-23) [FLAG-cRK10-(GS)3-Tras-Fc-His]: 88 nM.
Still for that read-out and setting: the same measure for DYKDDDDKGSGSTYLCGAISLA[pCaaF]KAQIKESLPAPAP-{Fc-H6} (Fc fusion, thioether 16-23) [FLAG-cRK10-PAPAP-Tras-Fc-His]: 90 nM.

Values taken from patent US20250197448A1 (published 2025).
